Source: the nanobody polyreactivity screen of Harvey et al. (2022)

Test: yeast display, Sf9 membrane polyspecificity reagent, FACS + sequencing; frameworks hold sequencing errors
Method in brief: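 In a synthetic yeast display library (Saccharomyces cerevisiae BJ5465), nanobody expression was induced with galactose for 36–48 hours. FACS gates were set low and high (top ~1%) using anti-HA fluorescence for expression and streptavidin fluorescence for binding of the Sf9 membrane reagent. Each polyreactivity label is drawn from the gate of origin.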

Sequence	polyreactivity (PSR sort gate)
QVQLVESGGGLVQARGSLRLSCAASGSIFDFYAMGWYRQAPGKERELVAAISGSGGSTYYADSVKARFTISRDNAKNNGYLQMISLKPDDTAVYYCSYYYWGQGTQVTVSS	low polyreactivity
QVQLVESGGGLVQARGSLRLSCAASGSIFFPYAMGWYRQAPGKERELVAAIRYSAGSTYYADSVKGRFTISRDNAKNTVYLQMNSLKPEDTAVYYCNAGSSCWVSRIGYDYWGEGTQVTVSS	high polyreactivity
QVQLVESGGGLVQARGSLRLSCAASGSIFIRNAMGWYRQAPGKERELVAAISTIGGRTYYADSVKGRFTISRDNAKNTVYLQMNSLKPEDTAVYYCAAEQGTPSTNWYDYWGQGTQVTVSS	low polyreactivity
QVQLVESGGGLVQARGSLRLSCAASGSIIGGNAMGWYRQAPGKERELVATISWSGGSTYYADSVKGRFTISRDKAKNTVYLQMNSLKPEDTAVYYCAKTPYRRYRYGGYTYRTYEYWGQGTQVTVSS	low polyreactivity
QVQLVESGGGLVQARGSLRLSCAASGSTFGLYAMGWYRQAPGKERELVAAISYSGSSTYYADSVKGRFTISRDNAKNTVYLQMNSLKPEDTAVYYCAARRSEHGYNYWGQGTQVTVSS	high polyreactivity
QVQLVESGGGLVQARGSLRLSCAASGSTFRINAMGWYRQAPGKERELVAAITSGGSTKYADSVKGRFTISRDNAKNTVYLQMYILKPADTAVYYCNKQGYPFRYFAWYPGYNYWGQGTQVTVSS	low polyreactivity
QVQLVESGGGLVQARGSLRLSCAASGSTFYAYVMGWYRQATGKERELVAAISKGGGSTYYADSVKGRFTISRDNAKNTVYLQMNSLKPEDTAVYYSAAYASYSNYRKYNYWGQGTQVTVSS	high polyreactivity
QVQLVESGGGLVQARGSLRLSCAASGSTFYYYAMALSRQAPVKERELFASISDHGSTNYADSVKGRFTISRDNAKNTVFLQMNSMKPEDTAVYYCGAVWCLQFGSAWYQMGYWGQVTQVTVSS	low polyreactivity
QVQLVESGGGLVQARGSLRLSCAASGSTLTRNTMGGYRQAPGKERELVAGITRSGSSTYYADSVKGRFTISRDNAKNTVYLQMNSLKPEDTAVYYCAAPYRYRQNLGYWGQGTQVTVSS	high polyreactivity
QVQLVESGGGLVQARGSLRLSCAASGTIFSSYAMGWYRQAPGKERELVAAIRWTGGSTYYADSVKGRFTISRDNAMNTVFLEMNSLKPEDTAVYFCTAEYWIDWGYDYWGQGTQVTVSS	low polyreactivity
QVQLVESGGGLVQARGSLRLSCAATGLTFYSNAMGWSRQAPGKERELVARISTGGSTYADSVKGRFTISRDNAKNTVYLQMNSLKPEDTAVYYCAKLPPRGIDDEYWGQGTQVTVSS	low polyreactivity
QVQLVESGGGLVQARGSLRLSFAASGGIFYSYAMGRYRQAPGKEREFVAAIRRSGGRTYYADSVKGRFTISRDNAKNTVYLQMNSLKPEDTAVYYCAADGWYSGGHDYWGQGTQVTVSS	high polyreactivity
QVQLVESGGGLVQARGSLRLSWAASGIIFALYAMGWSRQAPGKERELVAAISSDGITKYADSVKGRFTISRDNAKNPDYLQMNSLKPEDTAVYYCAADGYPGDYDYWGQGTQVTVSS	low polyreactivity
QVQLVESGGGLVQARVSLRLSCAASGITFRYYAMGWYRQAPGKERELVAAITRGGGSTYYADSVKGRFTISRDNAKNTVYLQMNSLKPEDTAVYYCAAAGSRYAWGYGYWGQGTQVTVSS	high polyreactivity
QVQLVESGGGLVQAVGRLRLSCAASGITLSLYAMGWYRQATGKETELVAAISRGGGRTYYADSVKGRFTISRDNAKNTVYLQMNSLKPEDTAVYYCNKGRNPGPAYFASVDYWGQGTQVTVSS	high polyreactivity
QVQLVESGGGLVQAVGRLRLSCAASGRTFYYNGMGWYRQAPGKERELVAAISSGGTTSYADSVKGRFTISRDNAKNTVYLQMNSLKPEDTAVYYCNVYDKAPAYDYWGQGTQVTVSS	low polyreactivity
QVQLVESGGGLVQAVGSHRLICAASGSIFPYYAMGWYRQAPGKERELVATITYRGGSTNYADSVKGRFTISRDNAKNTVYLQMNSLKPEDTAVYYCAAEYYSIRYGPHSIEVYGMDYWGQGTHVTVSS	low polyreactivity
QVQLVESGGGLVQAVGSLRLSCAASGFTFQHYAMGWYRQAPGNERELVAVISFSGGRTYYADSVKGRFTISRDNAKNTVYLQMNSLKPEDTAVYYCAAVFWDDYGKYYYWGLGTQVTVSS	high polyreactivity
QVQLVESGGGLVQAVGSLRLSCAASGLTFYPNAMGWYRQAPGKERQFVDSISISGRTYYADSVKGRFTISRDNAKNTVYLQMNSLKPEDTAVYYCAARYVRSGLYRKYDYWGQGTQVTVSS	high polyreactivity
QVQLVESGGGLVQAVGSLRLSCAASGLTFYSNAMGWYRQPHGKERELVATISQDGGRTYADSVKGRFTISRDNAKNTVYLQMNSLKPEDTAVYYCAADYSGNYDFGYWGQGTQVTVSS	low polyreactivity
QVQLVESGGGLVQAVGSLRLSCAASGRIFGYYDMGWYRQAPGKERELVAAINYDGGSTYYADSVKGRFTISRDNAKNTVYLQMNSLKPDDTAVYYCNKDGRVYLDHDYWGQGTQVTVSS	low polyreactivity
QVQLVESGGGLVQAVGSLRLSCAASGRIFNYYAMGWYRQAPGKEREMVAGISGYGTSTYYADSVKGRFTISRDNAKNTVYLQMNSLKPEDTAVYYCAADVFRDDVWLDYWGHGTQVTVSS	low polyreactivity

Sequence	polyreactivity (PSR sort gate)
QVQLVESGGGLVQAVGSLRLSCAASGRIFRYNAMGWYRQAPVKERELVASITSAGSTNYADSVKGRFTISRDNAKNTVYLQMNSLKPEDTAVYYCAARAQSPPYGYWGQGTQVTVSS	high polyreactivity
QVQLVESGGGLVQAVGSLRLSCAASGRTFARNAMGWYRQAPGKERELVAVITSGTSTYYADSVKGRFTISRDYAKNTVYLQMNSLKPEDTAVYYCAARSPGRAGIYYSWGQGTQVTVSS	high polyreactivity
QVQLVESGGGLVQAVGSLRLSCAASGRTFNRYGMGWYRQAPAKEMELVAAIRWSGTTTYYADSVKGRFTISRDNAKNTVYLQMNSQKPEDTAVYYCAAGTNVGRYGYYYWGQGTQVTVSS	high polyreactivity
QVQLVESGGGLVQAVGSLRLSCAASGRTFWANTMGWYRQAPGKERELVAAISKRGGSTYYADSVKGRFTISRDNAKNTVYLQMNSLKPEDTAVYYCNADKSGWYDYWGQGTQVTVSS	high polyreactivity
QVQLVESGGGLVQAVGSLRLSCAASGRTIAGYTMGWYRQARGQERELVAAISGRGGSTYYADSVKGRYTISRDNAKNTVYLQMNSLKPEDTAVYYCAAYTQGYWGRGRYGYCGQGTQVTVSS	high polyreactivity
QVQLVESGGGLVQAVGSLRLSCAASGRTSPRNAMGWYRQAPGKERELVAAINRTGGTTYYSDSVKGRFTISRDNAKNTVYLQMNSLIPEDTAVYYCAADVWVSTSGDWFRYDYWGQGTQVTVSS	high polyreactivity
QVQLVESGGGLVQAVGSLRLSCAASGSIFPDNAMGWYRQAPRKERELVASISWSGGSTYYADSVKGRFTISRDNAKNPVYLQRNSLKPEDTAVYYCARTYYWYLRVDYWGQGTQVTVSS	low polyreactivity
QVQLVESGGGLVQAVGSLRLSCAASGSIFTPYAMGWYRQAPGKERELVAAISGSGGSTRYADSVKGRFTISRDNATNTVYLQMNSLKPEDTAVYYCAADRYTYIWYHIYDYWGQGTQVTVSS	low polyreactivity
QVQLVESGGGLVQAVGSLRLSCAASGSTFREYTMGWYRQAPGKERELVAAITNSGGSTYYADSVKGRFTISRDNAKNTVYLQMNSLKPEDTAVYYCAAEGRYFYFTVKMDYWGQGTQVTVSS	low polyreactivity
QVQLVESGGGLVQAVGSLRLSCAASGSTFWFNAMGWYRQAPGKERELVAAIPSRGGYTYYADSVKGRFTISRDNAKNTVYLQMNSLKPEDTAVYYCAADYRYSSRKVFHFDYWGQGTQVTVSS	low polyreactivity
QVQLVESGGGLVQEGASLRLICAASGRTSYRYAMGWNRQAPGKERELVAAISFGGGSTYYADSVKGRFTISRDYAKNTVYLQMNSLKPEDTAVYYCATDRVKYRNIYTDTGFDYWGQGTQVTVSS	high polyreactivity
QVQLVESGGGLVQEGGSLRLSCAASASIFRYNAMGWYRQAPGKERELVAAITSRDGSTYYADSVKGRFTISRDNAQNTVYFQMNSLKPEDTAVYYCAVQPDSGNYDSGIYDRVGMDYWGQGTQVTVSS	low polyreactivity
QVQLVESGGGLVQEGGSLRLSCAASGFIFAWYDMGWYRQAPGKERELVAAISYYGGSTYYADSVKGRFTISRDNAKNTVYLQMNSLKPVDTAVYYCIKVSRGGSYGDAFDYWGQGTQVTVSS	high polyreactivity
QVQLVESGGGLVQEGGSLRLSCAASGFIFRYYAMGWYRQAPGKERELVAAISSSGGSTYYADSVKGRFTISRDNAKNTVYLQMNSLKPEDTAVSYCNAYNYGYIGYGYNYWGQGTQVTVSS	high polyreactivity
QVQLVESGGGLVQEGGSLRLSCAASGFTFVSNAMGWYRQAPGKERELVAAITYSGTRTYYADSVKGRFTISRDNAKTTVYLQMNSLKPEDTAVYYCAARRGYASAYYYWGQGTQVTVSS	high polyreactivity
QVQLVESGGGLVQEGGSLRLSCAASGFTLHVYAMGWYRQAPGKERELVAAISTGGNTNYADSVKGRFTISRDNAKNTVYLQMNSLKPEDTAVYYCNARYTSRRSRRPYYYWGQGTQVTVSS	high polyreactivity
QVQLVESGGGLVQEGGSLRLSCAASGITFAFYTMGRYRQAPGKERELVAAISYSGGRTYYADSVKGRFTISRDNAMNTVYLQMNSLKAEDTAVYYCAVETWWDYDYWGQGTQVTVSS	high polyreactivity
QVQLVESGGGLVQEGGSLRLSCAASGITFSVYTMGRYRQAPGKERELVASITRTGGSTYYADSVKGRFTISRDNAKNTVYLQMNSLNPEDTAVYYCAARRTVVTGRYYWGQGTQVTVSS	high polyreactivity
QVQLVESGGGLVQEGGSLRLSCAASGLIFGRYAMGWYRQAPGKERELVAAISSSGVRTYYADSVKGRFTISRDNAKNTVYLQMNSLKPEDTAVYYCAAAYWSSRDDTVIKRYYWGQGTQVTVSS	high polyreactivity
QVQLVESGGGLVQEGGSLRLSCAASGLTFLNNAMGWYRPAPGKERELVAAISDGGSTNYADSVKGRFTISRDNAKNTVYLQMNSMKRDDTAVYYCAAVYTSASYGSWGQGTQVTVSS	low polyreactivity
QVQLVESGGGLVQEGGSLRLSCAASGNTFKYYSMGWYRQAPGKERELVAAITWNGARTYYADSVKGRFTISRDNAKNTVYLQMNSLKPEDTAVYYCNARQGYRFDYWGQGTQVTVSS	high polyreactivity
